# Measurements: patent US20170306031A1 (NGM BIOPHARMACEUTICALS, published 2017)
# Substitutions are numbered along the chain they refer to.
# T1: mouse GFRAL (analyte in Biacore assays) (mouse, UniProt Q6SJE0 20-349, limits assumed)
# T1 construct: injected in solution over captured antibody
# T1 sequence: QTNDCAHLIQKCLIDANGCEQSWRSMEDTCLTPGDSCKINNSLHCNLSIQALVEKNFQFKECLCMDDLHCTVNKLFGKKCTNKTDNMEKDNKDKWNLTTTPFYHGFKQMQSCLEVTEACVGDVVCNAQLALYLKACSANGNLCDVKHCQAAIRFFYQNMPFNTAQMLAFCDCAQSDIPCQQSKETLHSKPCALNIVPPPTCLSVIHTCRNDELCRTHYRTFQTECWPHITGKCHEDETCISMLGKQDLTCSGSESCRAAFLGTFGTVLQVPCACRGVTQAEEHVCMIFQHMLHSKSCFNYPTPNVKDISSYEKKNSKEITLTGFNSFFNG
# T2: human GFRAL (analyte in Biacore assays) (human, UniProt Q6UXV0 19-351, limits assumed)
# T2 construct: injected in solution over captured antibody; also called hGFRAL
# T2 sequence: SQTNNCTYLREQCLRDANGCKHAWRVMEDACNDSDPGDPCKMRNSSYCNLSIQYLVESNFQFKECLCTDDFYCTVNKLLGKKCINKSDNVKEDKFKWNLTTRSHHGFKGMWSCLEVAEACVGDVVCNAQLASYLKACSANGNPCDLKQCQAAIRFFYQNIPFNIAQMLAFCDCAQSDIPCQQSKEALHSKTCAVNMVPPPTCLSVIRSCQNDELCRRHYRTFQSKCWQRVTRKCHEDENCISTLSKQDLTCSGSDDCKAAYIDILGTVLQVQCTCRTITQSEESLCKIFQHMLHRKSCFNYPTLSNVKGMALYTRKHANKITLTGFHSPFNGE
# T3: human GFRAL expressed on cells (human, UniProt Q6UXV0 20-394)
# T3 sequence: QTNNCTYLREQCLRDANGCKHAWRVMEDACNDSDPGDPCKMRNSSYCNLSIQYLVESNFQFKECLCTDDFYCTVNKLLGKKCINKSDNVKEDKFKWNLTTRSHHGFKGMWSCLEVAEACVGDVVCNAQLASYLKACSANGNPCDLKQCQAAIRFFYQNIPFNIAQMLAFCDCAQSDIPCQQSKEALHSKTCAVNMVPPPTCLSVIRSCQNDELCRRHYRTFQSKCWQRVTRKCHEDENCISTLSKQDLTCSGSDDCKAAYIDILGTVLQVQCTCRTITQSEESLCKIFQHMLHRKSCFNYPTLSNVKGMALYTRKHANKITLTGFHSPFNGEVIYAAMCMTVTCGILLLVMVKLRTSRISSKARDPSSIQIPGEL
# T4: mouse GFRAL expressed on cells (mouse, UniProt Q6SJE0 20-393)
# T4 sequence: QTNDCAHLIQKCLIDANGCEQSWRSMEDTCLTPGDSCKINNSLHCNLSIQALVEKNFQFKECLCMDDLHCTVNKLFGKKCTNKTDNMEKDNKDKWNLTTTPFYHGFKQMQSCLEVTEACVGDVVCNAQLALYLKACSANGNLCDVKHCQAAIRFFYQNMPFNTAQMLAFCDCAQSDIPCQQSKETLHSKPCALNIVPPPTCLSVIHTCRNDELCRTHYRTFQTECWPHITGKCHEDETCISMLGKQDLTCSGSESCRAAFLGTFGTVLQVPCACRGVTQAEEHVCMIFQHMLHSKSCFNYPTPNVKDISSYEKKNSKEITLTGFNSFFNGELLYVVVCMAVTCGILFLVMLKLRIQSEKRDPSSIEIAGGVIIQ
# B1: antibody designated 1B3 (antibody, V domains shown)
# VH: QVHLQQPGAELVKPGASVKLSCKASGFTFTGYNINWVRLRPEQGLEWIGWIFPGDDNAKYNEKFKGKATLTTDKSSNTAYMQLSRLTSEDSAVYFCARTPVLSNYFDYWGQGTTLTVSS
# VL: DIQMTQSPSSLSASLGGKVTITCKASQDISKYISWYQHKPGKSPRLLIHYTSTLQPGIPSRFSGSGSGRDYSFSISNLEPEDIATYYCLQYDNLYTFGGGTKLEIK
# notes: mouse hybridoma monoclonal
# B2: antibody designated 6G9 (antibody, V domains shown)
# VH: QVQLHQPGAELVKPGASVKLSCKTSGYTFTSYWMQWVKQRPGQGLEWIGEIDPSDSYTNYNQKFKGKATLTVDTSSTTAYMQLSSLTSEDSAVYYCARPLDRSAYYFDYWGQGTTLTVSS
# VL: DIVLTQSPASLAVSLGQRATISCRASESVDFSGNSFMHWYQQKPGQPPKLLIYRASNLDSGIPARFSGVGSRTDFTLTINPVEADDVATYYCQQSNEDPYTFGGGTKLEIE
# notes: mouse hybridoma monoclonal
# B3: antibody designated 12A3 (antibody, V domains shown)
# VH: QIQLVQSGPELKKPGETVKISCKASGYPFTIYGMNWVEQAPGKGLKWMGWINTYSGVPTYADDFKGRFAFSLETSASTAYLQINNLKDEDTATYFCASATGNYWGQGTTLTVSS
# VL: DIQMTQSPSSLSASLGERVSLTCRASQDIGSSLNWLQQEPDGTIKRLIYATSSLDSGVPKRFSGSRSGSDYSLTISSLESEDFVDYYCLQYASSPYTFGGGTKVEIK
# notes: mouse hybridoma monoclonal
# B4: antibody designated 2B8 (antibody, V domains shown)
# VH: QIQLVQSGPELKKPGETVKISCKASGYTFTTYGMSWVKQAPGKIFKWMGWINTYSGVPTFVDDFRGRFAFSLETSASTAYLQIGNLKNEDTATYFCARRSSYYPYWYFDVWGTGTTVTVSS
# VL: DIQMTQSPASLSASVGETVTITCRPSENIYSYLTWFQQEQGKSPQLLVYNAQTLAEGVPSRFSGSGSGTHFSLKINSLQPEDFGTYYCQHYYGYPFTFGSGTKLEIK
# notes: mouse hybridoma monoclonal
# B5: antibody designated 25M22 (antibody, V domains shown)
# VH: QVQLQQSGPDLVKPGASVKISCKASGYTFTSYWVNWMKQRPGKGLEWIGRIYPGDGDTNYNGKFKGKATLTADKSSSTAYMQLSSLTSEDSAVYFCARAYLLRLRRTGYYAMDYWGQGTSVTVSS
# VL: DVVLTQTPLSLPVNIGDQASISCKSTKSLLNSDEFTYLDWYLQKPGQSPQLLIFLVSNRFSGVPDRFSGSGSGTDFTLKISRVEAEDLGVYYCFQSNYLPYTFGGGTKLEIK
# notes: mouse hybridoma monoclonal
# B6: antibody designated 19K19 (antibody, V domains shown)
# VH: B5 VH with T28A, V34M, M37V
# VL: B5 VL with F54Y
# notes: mouse hybridoma monoclonal
# B7: antibody designated 2B11 (antibody, V domains shown)
# VH: DVQLQESGPGLVKPSQSLSLTCSVTGYSITSGYYWNWIRQFPGNKLEWMGHIANDGSNYYNPFLKHRVSITRDTSKNQFFLKLNSVTIQDTATYYCARGGSYFDYVDYWGQGTTLTVSS
# VL: DIQMTQTTSSLSASLGDRVTINCRASQDISNYLNWYQQKPDGTVKLLIYYTSRLHSGVPSRFSGSGSGTDYSLTITNLEQEDIATYFCQQGNTLPFTFGSGTKLEIK
# notes: mouse hybridoma monoclonal
# B8: antibody designated 2B3 (antibody, V domains shown)
# VH: EVKLVESGGGLVQPGGSLKLSCAASGFTFSDYFMFWVRQTPEKRLEWVAYISNDGDSTYYPDTVQGRFTISRDNAKNTLYLQMSRLRSEDTAMYYCTRQGAQATLDYWGQGTTLTVSS
# VL: QIVLTQSPAIMSASLGEEITLTCSASSSVFYMHWYQQKSGTSPKLLIYSTSNLASGIPSRFSGSGSGTFYSLTISSVEAEDAADYYCHQWSSTFGGGTKLEIK
# B9: humanized anti-GFRAL antibody HC-375g/LC-375a (antibody, IgG1, V domains shown)
# VH: QVQLVQSGAEVKKPGSSVKVSCKASGYTFTDYYINWVRQAPGQGLEWIARIYPGNGNTYHNEKFKGRATLTADKSTSTAYMELSSLRSEDTAVYYCAREGLYYDYDRYFDYWGQGTLVTVSS
# VL: DIVMTQSPDSLAVSLGERATINCRASESVDTYGNSFMHWYQQKPGQPPKLLIYLASNLESGVPDRFSGSGSGTDFTLTISSLQAEDVAVYYCHQNNEDPPAFGGGTKVEIK
# notes: humanized 5F12
# B10: humanized anti-GFRAL antibody HC-375g/LC-375j (antibody, IgG1, V domains shown)
# VH: B9 VH
# VL: DIVLTQSPLSLPVTLGQPASISCRASESVDTYGNSFMHWYQQRPGQSPRLLIYLASNLESGVPDRFSGSGSRTDFTLKISRVEAEDVGVYYCHQNNEDPPAFGGGTKVEIK
# notes: humanized 5F12
# Molecular target: T1, mouse GFRAL (analyte in Biacore assays)
# Experiment: Biacore SPR, antibody captured, GFRAL injected
# Experimental: (§1) In addition, the binding affinity of antibodies to human and mouse GFRAL were measured. For example, antibodies were rank ordered based on their binding affinity to human GFRAL and mouse GFRAL by low resolution KD measurement by Biacore. Briefly, an anti-mouse Fc antibody (Sigma-Aldrich, St. Louis, Mo.) was immobilized on all four flow cells of a CM5 chip using amine coupling reagents (GE Healthcare LifeSciences, Piscataway, N.J.). Purified antibodies were captured (˜100 RUs) on flow cells 2, 3 and 4 using flow cell 1 as a reference. This was followed by injection of human or mouse GFRAL (25 nM in PBS-P buffer) at a flow rate of 70 μL/m in and monitoring the binding kinetics at 25° C.
# (§2) Binding affinity measurements were also made in additional Biacore based assays. For example, equilibrium dissociation constant (KD) measurements were carried out with purified antibodies to evaluate their binding to human GFRAL or mouse GFRAL. As mentioned above, anti-mouse Fc antibody (Sigma-Aldrich, St. Louis, Mo.) was immobilized on all four flow cells of a CM5 chip using amine coupling reagents (GE Healthcare LifeSciences, Piscataway, N.J.). Purified antibodies were captured (˜100 RUs) on flow cells 2, 3 and 4 using flow cell 1 as a reference. This was followed by injection of human or mouse GFRAL in PBS-P buffer) at a flow rate of 70 μL/min and the binding kinetics were evaluated at 25° C.
Binder,Kd [nM],koff [s⁻¹],binding result
B1,4.4,0.00107,
B2,,,no binding
B3,5.7,0.00216,
B4,3.76,0.013,
B5,4.2,0.0001,
B6,4.7,0.0034,
B7,3.7,0.00144,

# Molecular target: T2, human GFRAL (analyte in Biacore assays)
# Experiment: Biacore SPR, antibody captured, GFRAL injected
# Experimental: as §1, §2
Binder,Kd [nM],koff [s⁻¹]
B1,< 0.1,
B2,< 0.1,
B3,< 0.1,~1e-05
B4,0.73,
B5,< 0.1,~1e-05
B6,0.21,0.000135
B7,0.1,8.45e-05

# Molecular target: T3, human GFRAL expressed on cells
# Experiment: cell-based or functional assay
row,Binder,"IC50, ERK phosphorylation in U2OS hGFRAL/hRET cells [nM]"
1,B1,0.57
2,B8,1.48
3,B2,0.17
4,B3,0.54
5,B4,0.22
6,B5,0.53
7,B6,0.61
8,B7,0.46

# Molecular target: T2, human GFRAL (analyte in Biacore assays)
# Experiment: Biacore SPR, antibody captured, human GFRAL injected
# Experimental: Exemplary humanized anti-GFRAL antibodies identified in Example 6 were assayed for their binding affinity to human GFRAL. Binding affinity measurements were made in Biacore based assays. For example, equilibrium dissociation constant (KD) measurements were carried out with purified antibodies to evaluate their binding to human GFRAL. Using methods described in Example II, anti-mouse Fc antibody (Sigma-Aldrich, St. Louis, Mo.) was immobilized on all four flow cells of a CM5 chip using amine coupling reagents (GE Healthcare LifeSciences, Piscataway, N.J.). Purified humanized anti-GFRAL antibodies were captured (˜100 RUs) on flow cells 2, 3 and 4 using flow cell 1 as a reference. This was followed by injection of human GFRAL in PBS-P buffer) at a flow rate of 70 μL/min and the binding kinetics were evaluated at 25° C.
row,Binder,Kd [nM]
1,B9,0.028
2,B10,0.057

# Molecular target: T3, human GFRAL expressed on cells
# Experiment: cell-based or functional assay
# Remark: another data set of the same source
row,Binder,"IC50, ELK1-luciferase reporter (hGFRAL/hRET) [nM]"
1,B1,4.14
2,B8,7.12
3,B2,2.65
4,B3,4.99
5,B4,1.92
6,B5,2.89
7,B6,3.88
8,B7,7.9

# Molecular target: T4, mouse GFRAL expressed on cells
# Experiment: cell-based or functional assay
row,Binder,"IC50, ELK1-luciferase reporter (mGFRAL/mRET) [nM]"
1,B8,7.76
2,B3,0.933
3,B4,2.45
4,B5,1.11
5,B6,0.895
